Experimental data as given in patent publication US20140242083A1 (Hoffmann-La Roche, published 2014).

Columns and labels:
[1] = molecular target: T1, human MCSP (melanoma chondroitin sulfate proteoglycan) on melanoma cells (human, UniProt Q6UVK1 30-2322); assay: FACS titration on Colo38 melanoma cells, FITC anti-human IgG Fc secondary antibody
T1 construct: Native MCSP on the human melanoma lines Colo38, A2058 and A375; also called surface MCSP; CSPG4
Protocol: (§1) Binding activity was determined by the following method. Target cells were detached from culture flask with cell dissociation buffer, counted and checked for viability. Cells were resuspended and adjusted to 1.111×10⁶ (viable) cells/ml in PBS-0.1% BSA. 180 μl of this suspension were transferred to each well (200,000 cells/well) in a round bottom 96-well-plate, centrifuged for 4 min, at 400 g, and resuspended. 20 μl of antibody dilutions in PBS-0.1% BSA (from 10 μg/ml to […]) were added to each well. The samples were centrifuged for 4 min, at 400 g, and resuspended. Secondary antibody, FITC-conjugated AffiniPure F(ab′)2 fragment goat anti-human IgG Fcg Fragment Specific (Jackson Immuno Research Lab #109-096-098)), was added and the sample centrifuged for 4 min, at 400 g, and resuspended. Fluorescence was measured in flow cytometer (e.g. FACS Canto II). Antibody 9.2.27, described in Morgan A C Jr, Galloway D R, Reisfeld R A. Hybridoma. 1981; 1(1):27-36.; GenBank Accession Numbers: GI:20797193 and GI:20797189 for light and heavy chain respectively, was used as a reference (FIG. 2). Human melanoma cell-lines Colo38, A2058, and A375 were used. Giacomini et al. 1985 (for Colo38). Marquardt H, Todaro G J. J Biol. Chem. 1982 May 10; 257(9):5220-5 (for A2058). Geiser M, Schultz D, Le Cardinal A, Voshol H, Garcia-Echeverria C. Cancer Res. 1999 Feb. 15; 59(4):905-10 (for A375).

[2] = molecular target: T1, human MCSP (melanoma chondroitin …); assay: FACS titration on A375 melanoma cells, FITC anti-human IgG Fc secondary antibody
Protocol: as §1

[3] = molecular target: T1, human MCSP (melanoma chondroitin …); assay: FACS titration on A2058 melanoma cells, FITC anti-human IgG Fc secondary antibody
Protocol: as §1

[4] = molecular target: T2, Construct 1 (CSPG repeat 15 of human MCSP with the natural transmembrane domain) (human, UniProt Q6UVK1 2044-2246); assay: FACS titration of LC007 on HEK-EBNA cells transfected with the construct; mock-transfected cells as control
T2 construct: Expressed on HEK-EBNA cells; contains the original transmembrane region; also called MCSP repeat 15 construct
T2 sequence: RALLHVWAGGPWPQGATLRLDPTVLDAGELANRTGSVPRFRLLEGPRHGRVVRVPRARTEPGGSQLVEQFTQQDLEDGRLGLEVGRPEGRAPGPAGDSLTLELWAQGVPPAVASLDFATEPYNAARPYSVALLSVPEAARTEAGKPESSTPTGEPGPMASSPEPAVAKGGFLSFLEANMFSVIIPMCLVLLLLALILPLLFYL

[5] = molecular target: T3, cynomolgus MCSP D3 domain expression construct (C-terminal part, N-terminal FLAG-tag) in HEK-EBNA cells (cynomolgus, UniProt Q6UVK1 1582-2224 (human entry), limits assumed); assay: flow cytometry titration of LC007 on HEK-EBNA cells expressing the construct; untreated EBNA cells as control
T3 construct: Tested by flow cytometry on transfected cells; the membrane anchor is not described; also called cynomolgus construct; cynomolgus antigen
T3 chain: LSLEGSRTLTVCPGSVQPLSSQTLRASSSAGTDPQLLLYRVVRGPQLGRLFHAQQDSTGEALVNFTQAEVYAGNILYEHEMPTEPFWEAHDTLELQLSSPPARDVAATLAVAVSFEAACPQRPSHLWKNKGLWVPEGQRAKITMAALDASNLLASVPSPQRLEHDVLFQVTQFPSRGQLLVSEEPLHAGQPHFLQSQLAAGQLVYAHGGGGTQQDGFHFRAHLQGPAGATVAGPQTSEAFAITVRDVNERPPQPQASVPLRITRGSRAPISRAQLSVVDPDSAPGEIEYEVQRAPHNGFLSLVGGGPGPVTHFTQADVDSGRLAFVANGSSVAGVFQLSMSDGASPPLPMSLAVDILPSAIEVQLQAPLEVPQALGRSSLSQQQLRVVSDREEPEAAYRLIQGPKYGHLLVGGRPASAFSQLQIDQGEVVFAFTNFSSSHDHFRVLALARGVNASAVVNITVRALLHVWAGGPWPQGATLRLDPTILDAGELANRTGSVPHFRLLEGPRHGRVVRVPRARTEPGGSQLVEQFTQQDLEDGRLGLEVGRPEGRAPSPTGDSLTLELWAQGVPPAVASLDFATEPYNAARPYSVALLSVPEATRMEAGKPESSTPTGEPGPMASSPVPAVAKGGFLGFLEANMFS

[6] = molecular target: T4, human MCSP D3 domain expression construct (C-terminal part, N-terminal FLAG-tag) in HEK-EBNA cells (human, UniProt Q6UVK1 1582-2224, limits assumed); assay: as above
T4 construct: 'A similar construct' to the cynomolgus one; it is not clear whether the signal peptide and FLAG-tag are part of it; also called corresponding human expression construct; human counterpart
T4 sequence: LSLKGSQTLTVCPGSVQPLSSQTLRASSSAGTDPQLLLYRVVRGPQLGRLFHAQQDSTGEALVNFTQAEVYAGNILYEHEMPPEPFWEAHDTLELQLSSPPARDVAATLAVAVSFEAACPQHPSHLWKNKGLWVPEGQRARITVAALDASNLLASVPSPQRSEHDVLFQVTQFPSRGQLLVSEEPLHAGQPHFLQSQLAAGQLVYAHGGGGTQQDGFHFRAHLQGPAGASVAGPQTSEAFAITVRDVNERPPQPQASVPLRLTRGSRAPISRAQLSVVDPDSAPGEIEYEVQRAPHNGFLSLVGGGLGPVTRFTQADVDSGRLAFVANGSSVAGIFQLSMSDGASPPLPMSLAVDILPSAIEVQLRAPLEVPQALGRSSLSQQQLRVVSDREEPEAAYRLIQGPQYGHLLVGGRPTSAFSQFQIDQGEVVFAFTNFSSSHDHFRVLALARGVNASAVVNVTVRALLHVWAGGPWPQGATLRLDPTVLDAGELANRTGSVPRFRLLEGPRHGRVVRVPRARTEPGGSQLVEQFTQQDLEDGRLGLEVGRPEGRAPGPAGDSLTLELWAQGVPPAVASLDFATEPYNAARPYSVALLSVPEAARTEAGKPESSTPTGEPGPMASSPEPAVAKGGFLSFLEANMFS

[7] = molecular target: T5, Construct 4 (CSPG repeat 12-15 of human MCSP) (human, UniProt Q6UVK1 1702-2246); assay: FACS titration of LC007 on HEK-EBNA cells transfected with the construct; mock-transfected cells and isotype as controls
T5 construct: Expressed on HEK-EBNA cells; contains the original transmembrane region
T5 sequence: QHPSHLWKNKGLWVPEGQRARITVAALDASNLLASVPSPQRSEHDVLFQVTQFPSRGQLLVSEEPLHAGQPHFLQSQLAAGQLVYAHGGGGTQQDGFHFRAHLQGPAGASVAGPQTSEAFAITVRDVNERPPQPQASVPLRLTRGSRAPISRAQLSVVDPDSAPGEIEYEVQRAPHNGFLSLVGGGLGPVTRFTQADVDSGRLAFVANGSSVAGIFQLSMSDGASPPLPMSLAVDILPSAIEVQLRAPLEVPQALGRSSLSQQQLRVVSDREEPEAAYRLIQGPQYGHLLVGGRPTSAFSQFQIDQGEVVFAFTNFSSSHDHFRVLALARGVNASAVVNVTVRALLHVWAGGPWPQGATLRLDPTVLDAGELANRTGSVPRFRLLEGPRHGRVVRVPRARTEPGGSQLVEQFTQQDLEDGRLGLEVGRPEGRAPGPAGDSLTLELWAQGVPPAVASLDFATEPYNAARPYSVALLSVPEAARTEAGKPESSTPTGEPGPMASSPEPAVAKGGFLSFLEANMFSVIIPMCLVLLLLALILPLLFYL

T1 sequence (Q6UVK1 30-2322 limits assumed): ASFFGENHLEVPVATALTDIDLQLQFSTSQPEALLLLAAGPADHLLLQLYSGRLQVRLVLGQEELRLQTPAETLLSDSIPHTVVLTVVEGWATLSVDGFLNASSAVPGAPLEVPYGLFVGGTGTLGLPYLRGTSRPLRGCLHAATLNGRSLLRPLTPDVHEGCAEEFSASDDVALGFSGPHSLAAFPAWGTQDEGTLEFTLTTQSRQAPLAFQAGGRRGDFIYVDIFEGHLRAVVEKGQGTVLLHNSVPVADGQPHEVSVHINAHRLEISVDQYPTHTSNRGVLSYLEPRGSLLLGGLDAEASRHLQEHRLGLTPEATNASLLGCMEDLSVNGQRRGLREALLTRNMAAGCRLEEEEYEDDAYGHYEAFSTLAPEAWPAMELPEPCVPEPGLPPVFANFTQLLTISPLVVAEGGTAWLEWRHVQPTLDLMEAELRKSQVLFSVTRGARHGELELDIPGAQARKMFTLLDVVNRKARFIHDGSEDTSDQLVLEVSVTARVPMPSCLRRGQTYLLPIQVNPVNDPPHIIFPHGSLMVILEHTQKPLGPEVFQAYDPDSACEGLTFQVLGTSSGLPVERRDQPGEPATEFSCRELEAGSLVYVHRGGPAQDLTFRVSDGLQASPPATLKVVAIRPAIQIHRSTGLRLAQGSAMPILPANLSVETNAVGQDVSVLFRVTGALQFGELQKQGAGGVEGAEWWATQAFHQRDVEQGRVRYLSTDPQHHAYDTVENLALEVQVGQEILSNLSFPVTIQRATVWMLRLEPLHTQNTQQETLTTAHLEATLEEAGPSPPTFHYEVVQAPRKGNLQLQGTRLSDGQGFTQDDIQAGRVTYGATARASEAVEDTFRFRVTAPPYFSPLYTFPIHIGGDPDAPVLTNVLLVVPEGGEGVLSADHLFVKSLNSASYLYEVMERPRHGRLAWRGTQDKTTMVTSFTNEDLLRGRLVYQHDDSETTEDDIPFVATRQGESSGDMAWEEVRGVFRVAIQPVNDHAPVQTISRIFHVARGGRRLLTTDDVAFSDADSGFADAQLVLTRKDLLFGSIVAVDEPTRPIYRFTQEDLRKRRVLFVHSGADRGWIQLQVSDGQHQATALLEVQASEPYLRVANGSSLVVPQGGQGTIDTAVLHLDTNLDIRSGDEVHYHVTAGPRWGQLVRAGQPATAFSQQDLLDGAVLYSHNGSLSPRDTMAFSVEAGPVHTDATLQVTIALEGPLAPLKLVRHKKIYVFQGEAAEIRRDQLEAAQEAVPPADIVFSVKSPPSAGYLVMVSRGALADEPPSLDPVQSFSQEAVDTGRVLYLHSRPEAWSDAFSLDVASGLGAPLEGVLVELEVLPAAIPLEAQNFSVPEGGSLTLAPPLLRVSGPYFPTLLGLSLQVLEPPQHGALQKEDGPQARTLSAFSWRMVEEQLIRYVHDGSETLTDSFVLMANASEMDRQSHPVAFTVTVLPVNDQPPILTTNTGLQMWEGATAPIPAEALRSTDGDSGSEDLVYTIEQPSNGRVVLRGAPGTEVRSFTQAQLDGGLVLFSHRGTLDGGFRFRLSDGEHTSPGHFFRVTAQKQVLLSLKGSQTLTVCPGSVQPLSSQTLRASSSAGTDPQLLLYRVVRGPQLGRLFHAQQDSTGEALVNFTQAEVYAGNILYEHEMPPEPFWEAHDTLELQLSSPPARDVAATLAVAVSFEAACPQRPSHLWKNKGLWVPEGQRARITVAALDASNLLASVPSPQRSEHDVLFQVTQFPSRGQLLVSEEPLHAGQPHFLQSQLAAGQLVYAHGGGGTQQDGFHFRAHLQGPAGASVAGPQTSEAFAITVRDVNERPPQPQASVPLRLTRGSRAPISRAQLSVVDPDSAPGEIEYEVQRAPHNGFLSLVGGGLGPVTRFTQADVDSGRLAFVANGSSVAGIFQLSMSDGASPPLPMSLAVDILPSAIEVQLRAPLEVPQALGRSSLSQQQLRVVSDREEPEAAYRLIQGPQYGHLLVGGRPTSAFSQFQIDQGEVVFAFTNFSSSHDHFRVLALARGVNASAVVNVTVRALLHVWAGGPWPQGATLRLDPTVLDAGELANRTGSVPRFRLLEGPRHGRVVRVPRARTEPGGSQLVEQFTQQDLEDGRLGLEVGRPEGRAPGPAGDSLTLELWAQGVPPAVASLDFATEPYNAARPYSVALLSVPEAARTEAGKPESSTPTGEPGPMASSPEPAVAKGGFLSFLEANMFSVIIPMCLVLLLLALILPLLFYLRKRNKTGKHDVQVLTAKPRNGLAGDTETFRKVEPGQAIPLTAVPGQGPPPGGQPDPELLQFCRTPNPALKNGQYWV

B1: chimeric antibody LC007 (antibody, human IgG1, kappa, V domains shown)
VH: EVQLQESGPGLVKPSQSLSLTCSVTGYSITSGYYWNWIRQFPGNKLEWMGYITYDGSNNYNPSLKNRISITRDTSKNQFFLKLNSVTTEDTATYYCADFDYWGQGTTLTVSS
VL: DIVLTQSPSSLSASLGDRVTISCSASQGIRNYLNWYQQRPDGTVKLLIYYTSSLHSGVPSRFSGSGSGTDYSLTISNLEPEDIATYYCQQYSKLPWTFGGGTKLEIKR
notes: all such entries are written under the chimeric antibody; also called LC007 antibody; LC007 wt
EC50 (read off the curve) [1]: ~0.05 µg/mL
EC50 (read off the curve) [2]: ~0.05 µg/mL
EC50 (read off the curve) [3]: ~0.03 µg/mL
binding result [4]: no binding (tested: 5 ug/ml)
EC50 (read off the curve) [5]: ~0.1 µg/mL
EC50 (read off the curve) [6]: ~0.08 µg/mL
EC50 (read off the curve) [7]: ~0.3 µg/mL
